Consider one substance from patent publication US20240368269A1.

The target in this assay is DLL3 (target in the Fab-Zap internalization assay) (UniProt Q9NYJ7). As to the kind of experiment: cell-based or functional assay.
DLL3 (target in the Fab-Zap internalization assay), sequence (Q9NYJ7 27-618 limits assumed): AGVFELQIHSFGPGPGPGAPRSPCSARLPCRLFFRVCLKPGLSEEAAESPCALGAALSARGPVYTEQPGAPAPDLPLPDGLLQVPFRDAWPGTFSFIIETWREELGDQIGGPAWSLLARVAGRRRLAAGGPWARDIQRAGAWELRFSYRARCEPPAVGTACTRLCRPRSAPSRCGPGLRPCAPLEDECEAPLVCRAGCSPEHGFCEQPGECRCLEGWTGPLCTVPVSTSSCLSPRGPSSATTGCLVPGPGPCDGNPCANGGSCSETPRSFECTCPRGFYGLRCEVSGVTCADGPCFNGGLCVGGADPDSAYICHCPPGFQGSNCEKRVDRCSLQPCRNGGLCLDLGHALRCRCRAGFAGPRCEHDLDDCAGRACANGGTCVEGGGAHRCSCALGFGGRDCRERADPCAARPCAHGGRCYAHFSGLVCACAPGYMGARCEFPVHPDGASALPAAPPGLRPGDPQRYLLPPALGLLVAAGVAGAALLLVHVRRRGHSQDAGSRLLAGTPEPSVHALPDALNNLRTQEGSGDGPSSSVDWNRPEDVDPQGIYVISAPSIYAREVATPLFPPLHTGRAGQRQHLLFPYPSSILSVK

Turning to “Rovalpituzumab Tesirine (SC16LD6.5) (antibody)”, the Percent Max Killing (Fab-Zap internalization assay, 10 ug/ml) stood at 96%.
